US11116816B2, “Therapeutic vitamin d conjugates” (Extend Biosciences, Inc., priority 2014, dated 2021)
Where two headings read alike, the source gives them in different places. Primed or numbered codes have the meaning given here. No end group written: not given here.

Tests used:
[1] = Pharmacokinetics of apelin and apelin conjugates, intravenous; assay type: in vivo, Sprague-Dawley rats; details: for pharmacokinetic properties compared to unmodified apelin: ELISA (FIG. 5); for bioavailability improvement: AUC versus native apelin-13, 0.1 mg/kg intravenous
Procedure: FIG. 5: Pharmacokinetics of apelin and apelin conjugates. Apelin alone or conjugated to the Vitamin D-(25)-PEG2k-maleimide carrier, or the Vitamin D-(3)-PEG2k-aldehyde carrier were injected intravenously into Sprague-Dawley rats at 0.1 mg/kg. Plasma samples were analyzed for apelin concentration by ELISA in duplicate and the average value from three animals were plotted on the semi-log graph.
Plasma samples were taken at 5 min, and 0.5, 1, 2, 4, 8 and 24 hr and analyzed for the presence of apelin by quantitative ELISA (Phoenix Pharmaceuticals, Burlingame, Calif., Cat. No. EK-057-23). […] Unmodified apelin decayed to near-background levels within 5 minutes of injection.
The decay rates of the carrier-conjugates are complex and probably represent a combination of slower renal clearance and protection from protease degradation. A pharmacokinetic analysis of the data was then performed using WinNonLin (PharSight) and GraphPad (Prism).

[2] = in vivo; cited from earlier work
[3] = Bertrand et al. 2015; cited from earlier work
[4] = natural state; WO03/011213, Kharitonenkov et al. 2005; cited from earlier work
[5] = molecular target: T1, human FGF21 receptor (FGFR1), recruitment of co-receptor β-Klotho (Homo sapiens, UniProt P11362+Q86Z14); test: PathHunter U2OS FGFR1-β-Klotho Functional Assay; assay type: cell-based; details: PathHunter U2OS cells expressing FGFR1, β-Klotho recruitment, chemiluminescence
T1 construct: host or cells: U2OS (PathHunter)
Description: In some embodiments, the activity of the FG21, when conjugated to a carrier, was substantially the same as unmodified protein. […] PathHunter® cells stably express human FGF21 receptor (FGFR1). They were monitored for recruitment of the co-receptor, β-Klotho, following exposure to the test compounds using the PathHunter® Detection reagent cocktail on a PerkinElmer Envision instrument with chemiluminescent signal detection. […] Thus, the FGF21 conjugates retained about the same receptor activity as the unmodified FGF21 protein or better.

[6] = Pharmacokinetics of FGF21 conjugates, subcutaneous; assay type: in vivo, Sprague Dawley rats; details: 0.1 mg/kg sc; for Cmax: plasma, human FGF21 ELISA
Procedure: The pharmacokinetics of FGF21 conjugates in Sprague Dawley rats were determined. Unmodified FGF21, VitD-(25)-PEG2K-FGF21 and VitD-(3)-PEG2K-FGF21 were compared. […] The samples were analyzed using commercial ELISA kits for human FGF21 (Millipore Cat. No. EZHFGF21-19K). […] Improvements in the mean residence time (MRT) and terminal rate constant (Lz) values were also observed.

[7] = 0.1 mg/kg intravenous, plasma, ELISA

T1 sequence (P11362 22-822): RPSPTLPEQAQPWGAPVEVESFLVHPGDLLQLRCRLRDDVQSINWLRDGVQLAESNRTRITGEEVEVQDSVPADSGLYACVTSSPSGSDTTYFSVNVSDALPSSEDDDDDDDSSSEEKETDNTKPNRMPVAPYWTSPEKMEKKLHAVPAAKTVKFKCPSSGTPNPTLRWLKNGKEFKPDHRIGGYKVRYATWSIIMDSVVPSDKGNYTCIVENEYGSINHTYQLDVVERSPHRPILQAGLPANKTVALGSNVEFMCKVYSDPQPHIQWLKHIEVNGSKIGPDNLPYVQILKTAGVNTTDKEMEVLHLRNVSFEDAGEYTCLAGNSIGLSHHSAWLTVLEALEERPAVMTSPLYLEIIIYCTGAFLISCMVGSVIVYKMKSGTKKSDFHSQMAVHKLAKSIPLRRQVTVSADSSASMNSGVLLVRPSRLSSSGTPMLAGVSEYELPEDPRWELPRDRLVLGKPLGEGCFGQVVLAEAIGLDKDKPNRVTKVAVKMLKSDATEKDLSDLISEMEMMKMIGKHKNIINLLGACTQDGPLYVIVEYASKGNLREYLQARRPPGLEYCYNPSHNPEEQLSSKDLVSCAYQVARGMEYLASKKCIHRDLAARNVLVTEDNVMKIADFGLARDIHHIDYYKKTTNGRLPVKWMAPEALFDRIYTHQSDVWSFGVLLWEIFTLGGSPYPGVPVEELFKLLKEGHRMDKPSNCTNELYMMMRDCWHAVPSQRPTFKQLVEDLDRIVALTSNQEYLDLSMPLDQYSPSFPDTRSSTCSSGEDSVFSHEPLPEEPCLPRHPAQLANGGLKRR
T1 sequence (Q86Z14 52-1044 limits assumed): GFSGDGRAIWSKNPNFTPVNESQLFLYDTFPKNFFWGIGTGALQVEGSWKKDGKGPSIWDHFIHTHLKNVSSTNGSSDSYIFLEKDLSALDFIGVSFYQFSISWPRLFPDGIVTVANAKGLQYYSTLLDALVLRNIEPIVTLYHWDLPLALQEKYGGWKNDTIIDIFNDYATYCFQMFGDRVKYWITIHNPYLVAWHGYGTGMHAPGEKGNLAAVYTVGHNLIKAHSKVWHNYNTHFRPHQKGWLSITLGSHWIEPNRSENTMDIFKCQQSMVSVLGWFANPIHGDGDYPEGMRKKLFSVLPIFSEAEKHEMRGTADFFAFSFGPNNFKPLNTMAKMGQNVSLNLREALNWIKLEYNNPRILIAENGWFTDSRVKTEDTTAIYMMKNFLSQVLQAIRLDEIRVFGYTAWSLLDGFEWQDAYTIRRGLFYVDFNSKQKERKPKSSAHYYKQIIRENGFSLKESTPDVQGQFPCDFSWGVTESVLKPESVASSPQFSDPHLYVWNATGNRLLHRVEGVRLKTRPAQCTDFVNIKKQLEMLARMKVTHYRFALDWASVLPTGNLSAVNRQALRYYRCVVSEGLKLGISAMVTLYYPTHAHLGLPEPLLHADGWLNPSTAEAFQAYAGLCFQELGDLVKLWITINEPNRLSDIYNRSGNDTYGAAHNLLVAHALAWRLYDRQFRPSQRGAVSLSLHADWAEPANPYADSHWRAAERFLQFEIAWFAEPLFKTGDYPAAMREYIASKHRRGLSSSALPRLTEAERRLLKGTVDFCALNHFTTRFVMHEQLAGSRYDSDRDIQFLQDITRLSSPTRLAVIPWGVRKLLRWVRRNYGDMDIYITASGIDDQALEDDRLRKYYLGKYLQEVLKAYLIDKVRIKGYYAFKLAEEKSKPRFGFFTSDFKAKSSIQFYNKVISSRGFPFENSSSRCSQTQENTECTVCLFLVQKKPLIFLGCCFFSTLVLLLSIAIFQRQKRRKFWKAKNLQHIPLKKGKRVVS

VitD-(25)-PEG2K-C-apelin: C-apelin (SEQ ID NO:16, N-terminal cysteine) conjugated to VitD-(25)-PEG2K-maleimide carrier (CQRPRLSHKGPMPF; VitD-(25)-PEG2K-maleimide carrier conjugate)
AUC [1, 7]: 85 ng·h/mL
pharmacokinetic properties compared to unmodified apelin ([1]; 0.1 mg/kg intravenous, plasma): improved pharmacokinetic properties
bioavailability improvement [1]: 213 fold

PTH: Parathyroid hormone, polypeptide containing 84 amino acids secreted by the parathyroid glands
half-life [2]: approximately 4 minutes

CSCC[C@H](NC(=O)[C@@H]1CCCN1C(=O)CNC(=O)[C@H](CCCCN)NC(=O)[C@H](Cc1cnc[nH]1)NC(=O)[C@H](CO)NC(=O)[C@H](CC(C)C)NC(=O)[C@H](CCCNC(=N)N)NC(=O)[C@@H]1CCCN1C(=O)[C@H](CCCNC(=N)N)NC(=O)[C@@H](N)CCC(N)=O)C(=O)N1CCC[C@H]1C(=O)N[C@@H](Cc1ccccc1)C(=O)O [apelin-13, reference compound]
time to decay to near-background levels after injection [1, 7]: ≤ 5 min
AUC ([1]; Sprague-Dawley, rat, 0.1 mg/kg intravenous, plasma, ELISA, read-out: AUC): 0.4 ng·h/mL
in vivo half-life [3]: ≤ 20 min

VitD-(3)-PEG2K-apelin: Apelin-13 conjugated at N-terminal amine to Vitamin D-(3)-PEG2K-aldehyde carrier ({VitD‑(3)-PEG2K}-QRPRLSHKGPMPF)
AUC [1, 7]: 328 ng·h/mL
pharmacokinetic properties compared to unmodified apelin ([1]; 0.1 mg/kg intravenous, plasma): significantly improved pharmacokinetic properties
bioavailability improvement [1]: 820 fold

B1: FGF21 in its natural state: Fibroblast Growth Factor 21, protein that circulates in serum, natural state (protein, UniProt Q9NSA1 29-209, looked up)
Fibroblast growth factor 21: HPIPDSSPLLQFGGQVRQRYLYTDDAQQTEAHLEIREDGTVGGAADQSPESLLQLKALKPGVIQILGVKTSRFLCQRPDGALYGSLHFDPEACSFRELLLEDGYNVYQSEAHGLPLHLPGNKSPHRDPAPRGPARFLPLPGLPPALPEPPGILAPQPPDVGSSDPLSMVGPSQGRSPSYAS
half-life in serum [4]: about 1.1 hours

B2: FGF21: Modified FGF21 expressed in E. coli, I3C substitution and His6 tag, SEQ ID NO:22, not conjugated (protein)
chain: MHHHHHHHPCPDSSPLLQFGGQVRQRYLYTDDAQQTEAHLEIREDGTVGGAADQSPESLLQLKALKPGVIQILGVKTSRFLCQRPDGALYGSLHFDPEACSFRELLLEDGYNVYQSEAHGLPLHLPGNKSPHRDPAPRGPARFLPLPGLPPALPEPPGILAPQPPDVGSSDPLSMVGPSQGRSPSYAS
modifications: His6 tag
EC50 [5]: 0.16 µg/mL
AUCtot [6]: 228 h(ng/ml)
Lz (terminal rate constant) [6]: .534 h⁻¹
MRT [6]: 2.8 h
Tmax [6]: 2 h
t½ [6]: 1.3 h
Cmax [6]: 59 ng/mL

B3: VitD-(25)-PEG2K-FGF21: Modified FGF21 (SEQ ID NO:22) conjugated via free cysteine to VitD-(25)-PEG2K-maleimide (conjugate)
chain: B2 chain
modifications: VitD-PEG2K-maleimide conjugated at free cysteine
EC50 [5]: 0.13 µg/mL
AUCtot [6]: 1640 h(ng/ml)
Lz (terminal rate constant) [6]: .131 h⁻¹
MRT [6]: 7.9 h
Tmax [6]: 2 h
half-life (t1/2) [6]: 5.3 h
half-life improvement compared to unmodified FGF21 [6]: 4.1 fold
improvement in AUC values versus unmodified FGF21 [6]: 7.2 fold
t½ [6]: 5.3 h
Cmax [6]: 115 ng/mL

B4: VitD-(3)-PEG2K-FGF21: Modified FGF21 (SEQ ID NO:22) conjugated via free cysteine to VitD-(3)-PEG2K-maleimide (conjugate)
chain: B2 chain
modifications: VitD-PEG2K-maleimide conjugated at free cysteine
EC50 [5]: 0.40 µg/mL
AUCtot [6]: 2727 h(ng/ml)
Lz (terminal rate constant) [6]: .0604 h⁻¹
MRT [6]: 18.9 h
Tmax [6]: 4 h
half-life (t1/2) [6]: 11.5 h
half-life improvement compared to unmodified FGF21 [6]: 8.8 fold
improvement in AUC values versus unmodified FGF21 [6]: 12.0 fold
t½ [6]: 11.5 h
Cmax [6]: 118 ng/mL
